In the RNAGym collection of RNA variant scans (doi:10.1073/pnas.2313332121):
This sample holds only a part of the variants without activity.

B1: TPR 5TU (parent)
chain: GGAUCUUCUCGAUCUAACAAAAAAGACAAAUCUGCCACAAAGCUUGAGAGCAUCUUCGGAUGCAGAGGCGGCAGCCUUCGGUGGCGCGAUAGCGCCAACGUUCUCAACUAUGACACGCAAAACGCGUGCUCCGUUGAAUGGAGUUUAUCAUG

Variants of: B1
Assay: polymerase ribozyme fitness, log enrichment relative to wild type (log ratio); higher = more active; in vitro selection for triplet polymerase activity
How it was run: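 To select mutant libraries of each subunit of a heterodimeric triplet polymerase ribozyme, built by PCR and transcribed, each was annealed with a biotinylated primer, partner subunit and triplets, then incubated frozen at −7 °C. Extended constructs were gel-excised, captured on streptavidin beads and amplified by RT-PCR, in one round carried out in triplicate. Illumina sequencing of input and output libraries kept genotypes with ≥10 input reads and ≥1 read per output. Fitness is the base-2 logarithm of genotype enrichment relative to wild-type enrichment, from inverse-variance-weighted replicate averages.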

Variant	polymerase ribozyme fitness (log ratio)
GGAUCUUCUCGAUCUAACAAAAAACACAAAUCUGCCACCAAGCUUGAGAGCAUCUUCGGAUGCAGAGGCGGCAGCAUUUGGUGGCGAGAUAGCGCCAACGUUCUCAACUUUGAUACGCAAAACGCGUGCUCCGUUGAAUGGAGUUUAUCAUG [G25C A39C C76A C79U C87A A110U C114U]	≤ -4.2
GGAUCUUCUCGAUCUAACAAAAAACACAAAUCUGCCACAAAGCUUGAGAGCGUCUUCGGAUGCAGAGGCGGCAGCCUUCGGUCGCGCGAUAGCGCCAACGUUCUCAACUAUGACACGCAAAACGCGUGCUCCGUUGAAUGGAGUUUAUCAUG [G25C A52G G83C]	-3.42
GGAUCUUCUCGAUCUAACAAAAAAAACAAAUCUGCCACAAAGCUUGAGAGCAUCAUCGGAUGCAGAGGCGGCAGCCUUCGGUGGCGCGAUAGCGCCAACGUUCUCAACUAUGACACGCAAAACGCGUGCUCCGUUGAAUGGAGUUUAUCAUG [G25A U55A]	-2.09
GGAUCUUCUCGAUCUAACAAAAAACUCAAAUCUGCCACAAAGCUUGAGAGCAUCUUCGGAUGCAGAGGCGGCAGCCUUCGGUGGCGGGAUAGCGCCAACGUUCUCAACUAUGACACGCAAUACGCGUGGUCCGUUGAAUGGAGUUUAUCAAG [G25C A26U C87G A121U C129G U151A]	≤ -4.2
GGAUCUUCUCGAUCUAACAAAAAACACAAAUCUGCCACAACGCUUGAGAGCAUCAUCGGAAGCAGAGGCGGCAGCCUUCGGUGGCGCGAUAGCGCCAACGUUCUCAACUAUGACAUGCAAAACGCGUGCUCCGUUGAAUGGAGAUUAUCAUG [G25C A41C U55A U61A C116U U144A]	≤ -4.2
GGAUCUUCUCGAUCUAACAAAAAAAACAAAUAUGCCACACAGCUUGAGAGCAUCUUCGGAUGCAGAGGCGGCAGCCUUCGGUGGCGCGAUAGCGCCAACGUUCUCAACUAUGACACGCAAAAAACGUGCUCCGUUGACUGGAGUUUAUCAUG [G25A C32A A40C C123A G124A A138C]	≤ -4.2
GGAUCUUCUCGAUCUAACAAAAAACACAAAUCUGCCACAAAGCUUGAGAGCAUCUUCGGAUGCAGAGGCGGCAGCCUUCGGUGGCGCGAUAGCGCCAACGUUCUCAACUAUGACACGCCAAACGCGUGCUCCGUUGAAUGGAGUUUAUCAUG [G25C A119C]	-2.68
GGAUCUUCUCGAUCUAACAAAAAACACAAAUCUGCCACAAAGCUUGAGAGCCUCUUCCGAUUCAGAGGCGGCAGCCUGCGGCGGCGCGAUAGAGCCAACGUUCUCAACUAUGACACGCAAAACGGGUGCUCCGUUGAAUGGAGUUUAUCAUG [G25C A52C G58C G62U U78G U82C C93A C125G]	≤ -4.2
GGAUCUUCUCGAUCUAACAAAAAAAACAAAUCUGCCAUAAAGCUUGAGAGCAUCUUCGGAUGCAGAGGCGGCAGCCUUCGGUGGGGCGAUAGCGCCAACGUUCUCAACUAUGACACGCAAAACGCGUGCUCCGUUGAAUGGAGUUUAUCAUG [G25A C38U C85G]	-4.07
GGAUCUUCUCGAUCUAACAAAAAACACAAAUCUGCCACAAAGCUUGAGAGCAUCUUCGGAUGCCGAGGCGGCAGCCUUCGGUGGCGCGAUAGCGCUAACGUUCUCAACUAUGACACGCAAAACGCGUGCUCCGUUGAAUGGAGUUUAUCAUG [G25C A64C C96U]	≤ -4.2
GGAUCUUCUCGAUCUAACAAAAAACACAAAUCUGCCACAAAGCUUGAGAGCAUCUUCGGGUGCAGAGGCGGCAGCCUUCGGUGGCCCGAUAGCGCCAACGUUCUUAACUAUGACACGCAAAACGCGUGCUCCGUUGAAUGGAGUUUAUCAUG [G25C A60G G86C C105U]	-3.36
GGAUCUUCUCGAUCUAACAAAAAAAACAAAUCUGCCACAAAGCUUGAGAGCAUUUUCGGAUGCAGAGGCGGCAGCCUUCGGUGGCGCGAUAGCGCUAACGUUCUCAACUAUGACACGCAAAACGCGUGCUCCGUUGAAUGGAGUUUAUCUUG [G25A C54U C96U A150U]	-0.00287
GGAUCUUCUCGAUCUAACAAAAAACACAAAUCUGUCACAAAGCUUGAGAGCAUCUUCGGAUGCAGAGGCGGCACACUUCGGUGGCGCGAUAGCGCCAACGUUCUCAACUAUGACACGCAAAACGCGUGCUCCGUUGAAUGGAGUUUAGCAUG [G25C C35U G74C C75A U148G]	≤ -4.2
GGAUCUUCUCGAUCUAACAAAAAACACAAAUCUGCCACAAAGCUUGAGAGCAUAUUCGGAUGCAGAGGCGGCAGCUUUCGGUGGCGCAAUAGCGCCAACGUUCUCAACUAUGACACGCAAAACGCGUGCUCCGUUGAAUGGAGUUUAUCAUG [G25C C54A C76U G88A]	≤ -4.2
GGAUCUUCUCGAUCUAACAAAAAACACAAAUCUGCCACAAAGCUUGAGAGCAUCUUCGGAUGCAGAGGCGGCAGCCUUCGGUGGCGCGAUAGCGCCGACGUUCUCAACUAUGACACGCAAAACGCGUGCUCCGUUGAAUGGAGUUUAUCAUG [G25C A97G]	-2.53
GGAUCUUCUCGAUCUAACAAAAAAAACAAAACUGCCACAAAGCUUGAGAGCAUCUACAGCUGCAGAGGCGGCAGCCUUCGGUGGCGCGAUAGCGUCAACGUUCUCAACUAUGACACGCAAAACGCGUGCUCCGUAGAAUGGAGUUUAUCAUG [G25A U31A U56A G58A A60C C95U U135A]	-1.75
GGAUCUUCUCGAUCUAACAAAAAACACAAAUCUGCCACAAAGCUUGAGCGCAUCUUCGGAUGCAGAGGCGGCAGCCUUCGGUGGCGCGAUAGGGCCAACGUUCUCAACUAUGACACGCAAAACGCGUGCUCCGUUGAAUGGAGUUUAUCAUG [G25C A49C C93G]	≤ -4.2
GGAUCUUCUCGAUCUAACAAAAAACACAAAUCUGCCACAAAGCUUGAGCGUAGAUUCGGAUGCAGAGGCGGCAGCCUUCGGUGGCGCGAUAGCGCCAACGUUCUCAACUAUGACAUGCAAAACGCGUGCUCCGUUGAAUGAAGUUUAUCAUU [G25C A49C C51U U53G C54A C116U G141A G152U]	≤ -4.2
GGAUCUUCUCGAUCUAACAAAAAAAACAAAUCUGCCACAAAGCUUGAGAGCAUCUUCGGAAGCAGAGGCGGCAGCCUUCGGUGGCGCGAUAGCGCCAACGUUCUCAACUAUGACACGCAAAACGCGUGCUCCGUUGAAUGGAGUUUAUCAUG [G25A U61A]	-3.19

Variant	polymerase ribozyme fitness (log ratio)
GGAUCUUCUCGAUCUAACAAAAAAAACAAAUCUGCCACAAAGCUUGAGAGCAUCAUCGGAUGCAGAGGCGGCAGCCUUCGGUGGCGCGAUAGCGCCAACGUUCUCAACUAUGACACGCAAAACGCGUGCUCCGUAGAAUGGAGUUUAUCAUG [G25A U55A U135A]	-3.79
GGAUCUUCUCGAUCUAACAAAAAACACAAAUCUGCCACAAAGCUUGAGAGCAUCUUCGGGUGCAGAGGCGGCAGCCUUCGGUCGCGCGAUAGCGCUAACGUUCUCAACUAUGACACGCAAAACGCGUGCUCCGUUGAAUGUAGUUUAUCAUG [G25C A60G G83C C96U G141U]	-2.48
GGAUCUUCUCGAUCUAACAAAAAACACAAAUCUGCCAAAAAGCUUGAGACCAUCUUCGGAUGCAGAGGCGGCAGCCUUCGGUGGCGCGAUACCGCCAACGUUCUCAACUAUGACACGCAAAACGCGUGCGCCGUUGAAUGGAGUUUAUCAUG [G25C C38A G50C G92C U130G]	≤ -4.2
GGAUCUUCUCGAUCUAACAAAAAACACAAAUCUGCCACAAAGCUUGAGAGCCUCUUCCCAUGCAGAGGCGGCAGCCUUCGGUGGCGCGAUAGCGCCAACGUUCUCAACUAUGACACGCAAAACGCGUGCUCCGUUGAUUGGAGUUUAUCAUG [G25C A52C G58C G59C A138U]	≤ -4.2
GGAUCUUCUCGAUCUAACAAAAAACACAAUUCUGCCACAAAGCUUGAGAGCAUCUUCGGAUGCAGAGGCGGCAGCCUCCGGUGGCGCGAUAGCGCGAACGUUCUCAACUAUGACACGCAAAACGCGUGCUCCGUUGAAUGGAGUUUAUCAUG [G25C A30U U78C C96G]	-3.97
GGAUCUUCUCGAUCUAACAAAAAACACAAAUCUGCCACAAAGCUUGAGAGCAUCUUCGGAUGCAGGGGCGGCAGCCUUCGGUGGCGCGAUAGCGCCAACGUUCUCCACUAUGACACGCAAAACGCGUGCUCCGUUGAAUGGAGUUUAUCAUG [G25C A66G A106C]	≤ -4.2
GGAUCUUCUCGAUCUAACAAAAAACACAAAUCUGCUACAAAGCUUGAGAGCAUCUUAGGAUGCAGAGGCGGCAGCCUUCGGUGGCGCGAUAGCGCCAACGUUCUCAACUAUGACACGCAAAACGCGUGCUCCGUUGAAUGGAGUUUAUCAUG [G25C C36U C57A]	-3.99
GGAUCUUCUCGAUCUAACAAAAAAAACAAAUCUGCCACAAAGCUUGAGAGCAUCUUCGGAUGCAGAGGCGGCAGCCUUCGGCGGCGCGAUAGCGCCAACGUUCUGAACUAUGACACGCAAUACGCGUGCUCCGUUGAAUGGAGUUUAUCAUG [G25A U82C C105G A121U]	-4.07
GGAUCUUCUCGAUCUAACAAAAAAAACAAAUCAGCCACAAAGCUUGAGAGCAUCUUCGGAUGCAGAGGCGGCAGCCUUCGGUCGCGCGAUUGCACCAACGUUCUCAACUAUGACACGCAAUACGCGUGCUUCGUUGAAUGGAGUUUAUCAUG [G25A U33A G83C A91U G94A A121U C131U]	≤ -4.2
GGAUCUUCUCGAUCUAACAAAAAACACAAAUCUGCCACAACGCUUGAGAGCGUCUUCGGAUGCAGAGGCGGCAGCCUUCGGUGGCACGAUAGCGCAAACGUUCUCAACUAUGACACGCAAAACGCGUGCUCCGUUGAAUGGAGUUUAUCAUG [G25C A41C A52G G86A C96A]	≤ -4.2
GGAUCUUCUCGAUCUAACAAAAAAAAGAAAUCUGCCACAAAGCAUGAGAGCAUCUUCGGAUGCAGAGGCGGCAGCCUUCGGUGGCCCGAUAGCGCCUACGUUCUCAACUCUGACACGCAAAACGCGUGCUCCGUUGAAUGGAGUUUAUCAUG [G25A C27G U44A G86C A97U A110C]	≤ -4.2
GGAUCUUCUCGAUCUAACAAAAAAAACAAAUCUGCCACAAAGCUUGAGAGCAUCUUCGGAUGCAGAGGCGGCAGCCUUCGGUGGCGCGUUAGCGGCAACGUUCUCAACUAUGACACGCAAAACGCGUGCUCCGUUGAAUGGAGUUUAUCAUG [G25A A89U C95G]	-4.2
GGAUCUUCUCGAUCUAACAAAAAAAACAAAUCUUGCACAAAGCUUGAGAGCAUCUUCGGAUGCAGAGGCGGCAGCCUUCGGUGGGGCGAUAGCGCCAACGUUCUCAACUAUGACACGCAAAACGCGUGCUCCGUUGAAUGGAGUUUAUCAUG [G25A G34U C35G C85G]	-4.2
GGAUCUUCUCGAUCUAACAAAAAACAAGAAUCUGCCACAUAGCUUGAGAGCAUCUUCGGAUGCAGAGGCGGCAGCCUUCGGUGGCGCGAUAGCGCCAACGUUCUCAACUAUGACACGCAAAACGCGUGCUCCGUUGAAUGGAGUUUAUAAUG [G25C C27A A28G A40U C149A]	≤ -4.2
GGAUCUUCUCGAUCUAACAAAAAAAACAAAUCUGCCACAAAGCUUGAUAGCAUCUUCGGAGGCAGAGGCGGCAGCCUUCGGUGGCGCGAUAGCGCAGACGUUCUCAACUAUGACACGCAAAACGCGUGCUCGGUUGAAUGGAGUUUAUCAUG [G25A G48U U61G C96A A97G C132G]	≤ -4.2
GGAUCUUCUCGAUCUAACAAAAAAAACAAAUCUCCCACAAAGCAUGAGAGCAUCUUCGGAUGCAGAGGCGGCAGCCUUCGGUGACGCAAUAGCGCCAACGUUCUCAACUAUGACACGCAAAACGCGUGCUCCGUUGAAUGGAGUUUAUCAUG [G25A G34C U44A G84A G88A]	≤ -4.2
GGAUCUUCUCGAUCUAACAAAAAACACAAAUCUGCCACAAAGCUUGAGAGCAUCUUCGGAUGCAGAGGCGGCAGCCUUCGGUGGCGCGAUAGCGCCAACGUUCUCAACUAUGACACGCAAAACGCGUGCUCCGUUGAAUGGAGUUUAUCCUG [G25C A150C]	-3.47
GGAUCUUCUCGAUCUAACAAAAAACACAAAUCUGCCACAAAGCUUGAGAGCCUCUACGGAUGCAGAGGCGGCAGCCUUCGGUGGUGCGAUAGCGCCAACGUUCUCAACUAUGACACGCAAAACCCGUGCUCCGUUGAAUGGAGUUUAUCAUG [G25C A52C U56A C85U G124C]	≤ -4.2
GGAUCUUCUCGAUCUAACAAAAAACAGAAAUUUGCCACACAGCUUGAGAGCAUCAUAGGAUGCAGAGGCGGCAGCCUUCGGUGGCGCUAUAGCGCUAACGUUCUCAACUAUGACACGCAAAACGCGUGCUCCGUUGAAUGAAGUUUAUCAUG [G25C C27G C32U A40C U55A C57A G88U C96U G141A]	≤ -4.2
